Results published in PMC6054644.

Experiments:
[1] = target: rhodamine phalloidin F-actin (G-actin from Cytoskeleton, AKL99) (UniProt P68135); assay: ultrafast force-clamp spectroscopy (optical tweezers); single biotinylated myosin-5B on a streptavidin bead pedestal, single actin filament suspended between two trapped alpha-actinin beads; 25 mM MOPS pH 7.2, 25 mM KCl, 4 mM MgCl2, 1 mM EGTA, 2 uM CaM, 100 uM ATP; assistive and resistive forces 0.5-3 pN; no added Ca2+
[2] = target: F-actin from rabbit skeletal muscle acetone powder (rabbit) (UniProt P68135)

Substance | k0^+ (detachment rate from actin, exponential fit extrapolated to zero force, resistive forces, 100 µM ATP) [1] [s⁻¹] | k0^− (detachment rate from actin, exponential fit extrapolated to zero force, assistive forces, 100 µM ATP) [1] [s⁻¹] | actin-activated steady-state ATPase activity (NADH-coupled assay), Kapp for F-actin at 2000 µM ATP [2] [µM]
biotinylated Avi-tag myosin-5B heavy meromyosin with bound calmodulin (from UniProt P21271 1-1095; P0DP29 1-149) (complex) | 0.64 | 2.3 | –
myosin-5B heavy meromyosin with bound calmodulin (Flag-tagged) (from UniProt P21271 1-1095; P0DP29 1-149) (complex) | – | – | 1.34
